Laboratory results as given in patent US20240327505A1 (published 2024).

Key:
[1] = molecular target: SARS-CoV-2 spike S1 protein (SARS-CoV-2, UniProt P0DTC2 16-685)
[2] = molecular target: SARS-CoV-2 spike receptor-binding domain (RBD) (SARS-CoV-2, UniProt P0DTC2 319-541)
[3] = molecular target: SARS-CoV-2 Spike (S) trimer (SARS-CoV-2, UniProt P0DTC2 16-1213); assay: ELISA on coated S trimer, 1:50
[4] = molecular target: SARS-CoV-2 spike S2 protein (SARS-CoV-2, UniProt P0DTC2 686-1213)
[5] = molecular target: SARS-CoV-2 spike S1 protein (SARS-CoV-2, UniProt P0DTC2 16-685); remark: listed apart in the source

B1: AB-009616 (antibody, V domains shown)
VH: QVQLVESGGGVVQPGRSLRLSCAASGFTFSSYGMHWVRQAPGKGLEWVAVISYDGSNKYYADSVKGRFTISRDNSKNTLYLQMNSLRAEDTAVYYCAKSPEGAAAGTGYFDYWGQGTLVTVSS
VL: SYVLTQPPSVSVAPGKTARITCGGNNIGSKSVHWYQQKPGQAPVLVVYDDSDRPSGIPERFSGSNSGNTATLTISRVEAGDEADYYCQVWDSSSDPWVFGGGTKLTVL
Kd [1]: 13.3 nM | koff [1]: 0.000755 s⁻¹ | kon [1]: 56900 M⁻¹ s⁻¹ | Kd [2]: 3 nM | koff [2]: 0.000287 s⁻¹ | kon [2]: 95800 M⁻¹ s⁻¹

B2: AB-009269 (antibody, V domains shown)
VH: QVQLVQSGAEVKKPGASVKVSCKASGYTFTSYGISWVRQAPGQGLEWMGWISAYNGNTNYAQKLQGRVTMTTDTSTSTAYMELRSLRSDDTAVYYCAREGDCSGGSCYSGYYYYYGMDVWGQGTTVTVSS
VL: EIVLTQSPATLSLSPGERATLSCRASQSVSSYLAWYQQKPGQAPRLLIYDASNRATGIPARFSGSGSGTDFTLTISSLEPEDFAVYYCQQRSNWGTFGPGTKVDIK
Kd [1]: 16.7 nM | koff [1]: 0.000643 s⁻¹ | kon [1]: 38500 M⁻¹ s⁻¹ | Kd [2]: 12 nM | koff [2]: 0.000675 s⁻¹ | kon [2]: 56300 M⁻¹ s⁻¹

B3: AB-009214 (antibody, V domains shown)
VH: QVQLVESGGGVVQPGRSLRLSCAASGFTFSSYGMHWVRQAPGKGLEWVAVIWYDGSNKYYADSVKGRFTISRDNSKNTLYLQMNSLRAEDTAVYYCARDEPPSYYGSGSRFDYWGQGTLVTVSS
VL: SYELTQPPSVSVSPGQTARITCSGDALPKKYAYWYQQKSGQAPVLVIYEDSKRPSGIPERFSGSSSGTMATLTISGAQVEDEADYYCYSTDSSGNHWVFGGGTKLTVL
OD 450 nm [3]: 0.691 OD | Kd [4]: 23.2 nM

B4: AB-009110 (antibody, V domains shown)
VH: QVQLVQSGAEVKEPGASVKVSCNASGYIFTSYGISWVRQAPGQGLEWVGWISGNNGNTNYAQKFQGRVTLTTDTSTSTAYLELRSLTSADTGVYFCARARLPSAYWGPGTLLTVSS
VL: EILLTQSPATLSVSPGERGSLSCRASQSVGTNLAWYQQKPGQAPRLLIYGASARATGIPARFSGSGSGTEFTLTISSLQSEDFGVYYCQQYNDWPPWTFGQGTKVEIK
OD 450 nm [3]: 0.081 OD

B5: AB-009666 (antibody, V domains shown)
VH: EVQLVESGGGLVQPGGSLRLSCAASGFTFSSYDMHWVRQATGKGLEWVSTIGTAGDTYYPGSVKGRFTISRENAKNSLYLQMNSLRAEDTAVYYCARVNYDSSGYPTYWYFDLWGRGTLVTVSS
VL: DIQMTQSPSSLSASVGDRVTITCRASQSISRYLNWYQQKPGKAPKLLIYAASSLQSGVPSRFSGSGSGTDFTLTISSLQPEDFATYNCQQSYSSPPWTFGQGTKVEIK
Kd [1]: 11.9 nM | koff [1]: 0.000546 s⁻¹ | kon [1]: 45900 M⁻¹ s⁻¹ | Kd [2]: 3.04 nM | koff [2]: 0.00062 s⁻¹ | kon [2]: 204000 M⁻¹ s⁻¹

B6: AB-009661 (antibody, V domains shown)
VH: QVQLVESGGGVVQPGRSLRLSCAASGFTFSSYGMHWVRQAPGKGLEWVAVISYDGSNKYYADSVKGRFTISRDNSKNTLYLQMNSLRAEDTAVYYCAKDYGDYGGMDVWGQGTTVTVSS
VL: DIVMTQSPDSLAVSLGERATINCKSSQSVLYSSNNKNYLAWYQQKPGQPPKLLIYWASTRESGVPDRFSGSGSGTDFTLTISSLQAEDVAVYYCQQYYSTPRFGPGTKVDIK
Kd [5]: 84 nM | koff [5]: 0.00428 s⁻¹ | kon [5]: 51000 M⁻¹ s⁻¹

B7: AB-009291 (antibody, V domains shown)
VH: EVHLLESGGGLVQPGGSLRLSCAASGFTFTTYAMFWVRQAPGKGLEWVSAINAGGAKTHYADSVRGRFTISRDNSKSTLYLHMDRLRVGDTAIYYCAKVPSYIYDSRDDYLDFWGQGTLVTVSS
VL: EIVLTQSPATLSLSPGERATLSCRASQSVSSYLAWYQQRPGQAPRLLIYDASSRATGIPVRFSGSGSGTDFTLTISSLEPEDFAVYYCQQRSDWPLLTFGGGTKVEIK
OD 450 nm [3]: 2.26 OD | Kd [4]: 0.0174 nM | koff [4]: 3.28e-07 s⁻¹ | kon [4]: 18900 M⁻¹ s⁻¹

B8: AB-009760 (antibody, V domains shown)
VH: EVQLVQSGAEVKKPGESLKISCKGSGYSFTSYWIGWVRQMPGKGLEWMGIIYPGDSDTRYSPSFQGQVTISADKSISTAYLQWSSLKASDTAMYYCARSRSSDYFDYWGQGTLVTVSS
VL: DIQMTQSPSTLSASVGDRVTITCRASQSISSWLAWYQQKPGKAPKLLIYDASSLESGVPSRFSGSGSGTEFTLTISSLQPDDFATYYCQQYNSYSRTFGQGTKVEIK
Kd [5]: 4.16 nM | koff [5]: 0.000267 s⁻¹ | kon [5]: 64000 M⁻¹ s⁻¹

B9: AB-009106 (antibody, V domains shown)
VH: QVQLAQSGAEVKRPGASVKVSCKASGFDLTTYGVGWVRQAPGQGLEWMGWISGSSGDTHYAQQFQDRVTMTTDTPTSTAYMELRSLRSDDTAVYYCVRENIAHYGSRTFLVRYYRGMDVWGQGTTVTVAS
VL: QSALTQPASVSGSPGQSITITCTGSSSDIGGFDFVSWYQQYPGKAPKLVISEVTNRPSGVSIRFSGSKSGNTASLTISGLQAEDEADYYCSSYASSYPTTNTRVFGTGTKVTVL
OD 450 nm [3]: 0.1 OD | Kd [4]: 0.0413 nM | koff [4]: 2.63e-07 s⁻¹ | kon [4]: 6370 M⁻¹ s⁻¹

B10: AB-009343 (antibody, V domains shown)
VH: QAQLVESGGGVVQPGRSLRLSCAASGFTFNNHGMHWVRQVPGKGLEWVAVISYEGSKKDYADSVKGRFSISRDNSKQTVYLQMNSLRVEDTAVYYCAKDAAIFMIYPSRYFDLWGRGTLLTVSS
VL: SYELTQPPSMSVSPGQTASITCSGYILGDVSASWYQQKPGQSPVLIIYQDTKRPSGIPDRFSGSDSGNTATLTISGTQATDEADYYCQAWDSRTHVVFGGGTKLTVL
OD 450 nm [3]: 0.459 OD

B11: AB-009226 (antibody, V domains shown)
VH: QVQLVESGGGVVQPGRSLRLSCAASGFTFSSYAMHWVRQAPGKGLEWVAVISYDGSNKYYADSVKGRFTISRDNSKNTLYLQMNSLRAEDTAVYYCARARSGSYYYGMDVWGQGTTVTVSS
VL: QSALTQPASVSGSPGQSITISCTGTSSDVGGYNYVSWYQQHPGKAPKLMIYEVSNRPSGVSNRFSGSKSGNTASLTISGLQAEDEADYYCSSYTSSSTLYVFGTGTKVTVL
OD 450 nm [3]: 2.33 OD | Kd [4]: 27.9 nM | koff [4]: 0.000783 s⁻¹ | kon [4]: 28100 M⁻¹ s⁻¹

B12: AB-009221 (antibody, V domains shown)
VH: EVQLVESGGGLVQPGGSLRLSCAASGFTVSSNYMSWVRQAPGKGLEWVSVIYSGGSTYYADSVKGRFTISRHNSKNTLYLQMNSLRAEDTAVYYCARDRNAFDIWGQGTMVIVSS
VL: DIQMTQSPSSLSASVGDRVSITCQASQDISNDLNWYQQKPGKAPKLLVYDASKLETGVPPRFSGSGSGTDFTFTISSLQPEDIATYYCQQYDNLPLYSFGQGTKLEIK
Kd [1]: 34 nM | koff [1]: 0.00128 s⁻¹ | kon [1]: 37700 M⁻¹ s⁻¹ | Kd [2]: 26.4 nM | koff [2]: 0.00121 s⁻¹ | kon [2]: 45800 M⁻¹ s⁻¹

B13: AB-009361 (antibody, V domains shown)
VH: EVQLVESGGGLAQPGGTLRLSCTGYGFIFNNYGLTWVRQAPGKGLEWLSVLSGSSYIKYEADSVRGRFTISRDNSKNTLYLEMNSLTAEDTAVYYCARKGVGSQDYGLDVWGQGTTVIVSS
VL: QSVLAQPPSASETPGQSVTISCSGSTSNIGSNFVYWYQQLPGTAPKLLIYRNTQRPSGVPDRFSGSKSATSASLAISGLRPEDEADYYCAAWDDSLSGGVFGTGTKVTVL
OD 450 nm [3]: 1.39 OD

B14: AB-009329 (antibody, V domains shown)
VH: QLQLQESGPGLVKPSETLSLTCTVSGGSISSSSYYWGWIRQPPGKGLEWIGSIYYSGSTYYNPSLKSRVTISVDTSKNQFSLKLSSVTAADTAVYYCARHKMGWLQFAGWFDPWGQGTLVTVSS
VL: SSELTQDPAVSVALGQTVRITCQGDSLRSYYASWYQQKPGQAPVLVIYGKNNRPSGIPDRFSGSSSGNTASLTITGAQAEDEADYYCNSRDSSGNHWVFGGGTKLTVL
OD 450 nm [3]: 0.235 OD

B15: AB-009747 (antibody, V domains shown)
VH: QVQLVESGGGVVQPGGSLRLSCAASGFTFSNYGMHWVRQAPGKGLEWVAFIRYDGSNEYYADSVKGRFTISRDNSKNTLYLHMNSLRPEDTAVYYCAKQGLLSNYYYGMDVWGQGTTVTVSS
VL: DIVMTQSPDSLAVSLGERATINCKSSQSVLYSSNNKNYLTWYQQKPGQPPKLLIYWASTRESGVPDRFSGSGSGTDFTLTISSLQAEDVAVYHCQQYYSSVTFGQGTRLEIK
Kd [1]: 45.2 nM | koff [1]: 0.00379 s⁻¹ | kon [1]: 83700 M⁻¹ s⁻¹ | koff [2]: 0.00105 s⁻¹

B16: AB-009363 (antibody, V domains shown)
VH: EVQLLESGGGLVQPGGSLRLSCAASGFTFSSFAMTWIRQAPGKGLEWISAIGGDGGATYYVDSIKGRFTISRDNSKNTVYLHMNGLRVEDTAVYYCATPSPTRYSWGQGTLVTVSS
VL: DIVMTQSPDSLAVSLGERATLNCKSSQSVLYSSNNKNYLAWYQQKPGQPPKLLFYWASTRQSGVPDRFSGSGSGTDFTLTISSLQAEDGAVYYCQQYHKTPHTFGQGTKLEIK
OD 450 nm [3]: 2.94 OD | Kd [4]: 192 nM | koff [4]: 0.0016 s⁻¹ | kon [4]: 8330 M⁻¹ s⁻¹

B17: AB-009080 (antibody, V domains shown)
VH: QVQLQQWGAGLLKPSETLSLTCAVYGGSFSGYYWSWIRQPPGKGLEWIGEINHSGSTNYNPSLKSRVTISVDTSKNQFSLKLSSVTAADTAVYYCARGLPVTTFYYYYYGMDVWGQGTTVTVSS
VL: not shown
OD 450 nm [3]: 0.166 OD | Kd [4]: 0.111 nM | koff [4]: 2.79e-07 s⁻¹ | kon [4]: 2520 M⁻¹ s⁻¹

B18: AB-009769 (antibody, V domains shown)
VH: EVQLVESGGGLVQPGGSLRLSCAASGFTFSSYWMSWVRQAPGKGLEWVANIKQDGSEKYYVDSVKGRFTISRDNAKNSLYLQMNSLRAEDTAVYYCARSPEVLWFGDPVLDNWFDPWGQGTLVTVSS
VL: SYELTQPPSVSVSPGQTARITCSGDALPKQYAYWYQQKPGQAPVLVIYKDSERPSGIPERFSGSSSGTTVTLTISGVQAEDEADYYCQSADSSGTYPVVFGGGTKLTVL
Kd [5]: 106 nM | koff [5]: 0.00194 s⁻¹ | kon [5]: 18400 M⁻¹ s⁻¹

B19: AB-009083 (antibody, V domains shown)
VH: EVHLLESGGGLVQPGGSLTLTCAASGFSFGNYVMGWVRQAPGKGLEWVSSIFGSGANPHYGGSVKGRFTISRDNSQNTLFLQMDSLTAEDTAVYYCARDGGTMVGGIITGGFNYFDSWGQGTLVTVSS
VL: EIVLTQSPASLSLSPGGWATLSCRASRSIGNSLAWYQQRPGQAPRLLIYDASNRATGIPARFSGSGSGTDFTLTISSLEPEDFAIYYCQQRNSWPPLYTFGQGTKLEIK
OD 450 nm [3]: 0.249 OD | Kd [4]: 0.164 nM | koff [4]: 4.95e-07 s⁻¹ | kon [4]: 3010 M⁻¹ s⁻¹

B20: AB-009364 (antibody, V domains shown)
VH: QVQLVESGGGVVQPGRSLRLSCAASGFTFSSYAMHWVRQAPGKGLEWVAVISYDGSNKYYADSVKGRFTISRDNSKNTLYLQMNSLRAEDTAVYYCARDPDYYDSSSDAFDIWGQGTMVTVSS
VL: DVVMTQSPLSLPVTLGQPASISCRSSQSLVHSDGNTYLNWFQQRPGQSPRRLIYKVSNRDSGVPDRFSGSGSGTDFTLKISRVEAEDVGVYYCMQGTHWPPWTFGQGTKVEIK
OD 450 nm [3]: 1.06 OD

B21: AB-009620 (antibody, V domains shown)
VH: QITLKESGPTLVKPTQTLTLTCTFSGFSLSTSGVGVGWIRQPPGKALEWLALIYWDDDKRYSPSLKSRLTITKDTSKNQVVLTMTNMDPVDTATYYCAHHEVATVFDYWGQGTLVTVSS
VL: QSALTQPASVSGSPGQSITISCTGTSSDVGAYNYVSWYQQHPGKAPKLMIYEVSNRPSGVSNRFSGSKSGNTASLTISGLQAEDEADYYCSSYTSSSTVFGGGTKLTVL
Kd [5]: 27.5 nM | koff [5]: 0.00078 s⁻¹ | kon [5]: 28400 M⁻¹ s⁻¹
